Experimental data as given in US20240270821A1, “GIP/GLP1/GCG TRI-RECEPTOR AGONISTS AND USES THEREOF” (priority 2023, published 2024).
Residue numbers refer to the chain shown, from its start.

B1: Example 1058 (peptide)
chain: YXQGTFTSDXSQXLDXKAQXAFIEXLLEGGPSSGAPPPSGSEE
modifications: non-natural residues; lysine acylated γGlu-C18 diacid; C-terminal amide; synthetic construct; SITE 2: note = 2-Aminoisobutyric Acid; SITE 10: note = 3-(4-Pyridyl)-L-alanine; SITE 13: note = alpha-methyl-leucine; SITE 16: note = L-ornithine; SITE 17: note = Lysine is chemically modified through conjugation of the epsilon-amino group of the Lysine side chain with D-Glutami
B2: Example 1061 (peptide)
chain: B1 chain with Q12X, X25Y, L27I, E28A
modifications: non-natural residues, C-terminal amide, acylated Lys with fatty diacid; synthetic construct; SITE 2: note = 2-Aminoisobutyric Acid; SITE 10: note = 3-(4-Pyridyl)-L-alanine; SITE 12: note = …; SITE 13: note = alpha-methyl-leucine; SITE 16: note = L-ornithine; SITE 17: note = Lysine is chemically modified through conjugation of the epsilon-amino group of the Lys
B3: Example 1062 (peptide)
chain: B1 chain with Q12X, X25Y, L27I, E28A
modifications: C-terminal amide; lysine acylated with (Glu)2-γ-Glu-C18 diacid; synthetic construct; SITE 2: note = 2-Aminoisobutyric Acid; SITE 10: note = 3-(4-Pyridyl)-L-alanine; SITE 12: note = L-ornithine; SITE 13: note = alpha-methyl-leucine; SITE 16: note = L-ornithine; SITE 17: note = Lysine is chemically modified through conjugation of the epsilon-amino group of the Lys
B4: Example 1056 (peptide)
chain: B1 chain with X25Y, E28A
modifications: non-natural residues; lipidated Lys; C-terminal amide; synthetic construct; SITE 2: note = 2-Aminoisobutyric Acid; SITE 10: note = 3-(4-Pyridyl)-L-alanine; SITE 13: note = alpha-methyl-leucine; SITE 16: note = L-ornithine; SITE 17: note = Lysine is chemically modified through conjugation of the epsilon-amino group of the Lysine side chain with (gamma-Gl)
B5: Example 1057 (peptide)
chain: B1 chain with X25Y, E28A
modifications: non-natural residues, lipidated Lys, C-terminal amide; synthetic construct; SITE 2: note = 2-Aminoisobutyric Acid; SITE 10: note = 3-(4-Pyridyl)-L-alanine; SITE 13: note = alpha-methyl-leucine; SITE 16: note = L-ornithine; SITE 17: note = Lysine is chemically modified through conjugation of the epsilon-amino group of the Lysine side chain with (Glu)-(ga)
B6: Example 1044 (peptide)
chain: B1 chain with L27I
modifications: non-natural residues, (γGlu)2-C18 diacid lysine acylation, C-terminal amide; synthetic construct; SITE 2: note = 2-Aminoisobutyric Acid; SITE 10: note = 3-(4-Pyridyl)-L-alanine; SITE 13: note = alpha-methyl-leucine; SITE 16: note = L-ornithine; SITE 17: note = Lysine is chemically modified through conjugation of the epsilon-amino group of the Lysine side chain with (gamma-Gl)
B7: Example 1053 (peptide)
chain: B1 chain with X10F, Q12X, E28A, S39E
modifications: non-natural residues, (γGlu)2-C18 diacid lysine acylation, C-terminal amide; synthetic construct; SITE 2: note = 2-Aminoisobutyric Acid; SITE 12: note = L-ornithine; SITE 13: note = alpha-methyl-leucine; SITE 16: note = L-ornithine; SITE 17: note = Lysine is chemically modified through conjugation of the epsilon-amino group of the Lysine side chain with (gamma-Glu)2-CO-(CH2)
B8: Example 1043 (peptide)
chain: B1 chain with L27I
modifications: non-natural residues, C18 diacid-(γGlu)2 acyl on K, C-terminal amide; synthetic construct; SITE 2: note = 2-Aminoisobutyric Acid; SITE 10: note = 3-(4-Pyridyl)-L-alanine; SITE 13: note = alpha-methyl-leucine; SITE 16: note = L-ornithine; SITE 17: note = Lysine is chemically modified through conjugation of the epsilon-amino group of the Lysine side chain with (gamma-Gl)
B9: Example 1050 (peptide)
chain: B1 chain with X10F, Q12X, S39G
modifications: non-natural residues; Lys acylated C18 diacid via γGlu2; C-term amide; synthetic construct; SITE 2: note = 2-Aminoisobutyric Acid; SITE 12: note = L-ornithine; SITE 13: note = alpha-methyl-leucine; SITE 16: note = L-ornithine; SITE 17: note = Lysine is chemically modified through conjugation of the epsilon-amino group of the Lysine side chain with (gamma-Glu)2-CO-(CH2)
B10: Example 1046 (peptide)
chain: B1 chain with A21Q, L27I
modifications: non-natural residues, C-terminal amide, acylated Lys with fatty diacid; synthetic construct; SITE 2: note = 2-Aminoisobutyric Acid; SITE 10: note = 3-(4-Pyridyl)-L-alanine; SITE 13: note = alpha-methyl-leucine; SITE 16: note = L-ornithine; SITE 17: note = Lysine is chemically modified through conjugation of the epsilon-amino group of the Lysine side chain with (gamma-Gl)
B11: Example 1066 (peptide)
chain: B1 chain with Q12X
modifications: non-natural residues, Glu-γGlu-C18 diacid acylation, C-terminal amide; synthetic construct; SITE 2: note = 2-Aminoisobutyric Acid; SITE 10: note = 3-(4-Pyridyl)-L-alanine; SITE 12: note = L-ornithine; SITE 13: note = alpha-methyl-leucine; SITE 16: note = L-ornithine; SITE 17: note = Lysine is chemically modified through conjugation of the epsilon-amino group of the Lys
B12: Example 1060 (peptide)
chain: B1 chain with Q12X, X16K, X25Y, L27I, E28A
modifications: Aib, 4Pal, Orn, αMeL, Me4Pal; acylated Lys; C-terminal amide; synthetic construct; SITE 2: note = 2-Aminoisobutyric Acid; SITE 10: note = 3-(4-Pyridyl)-L-alanine; SITE 12: note = L-ornithine; SITE 13: note = alpha-methyl-leucine; SITE 17: note = Lysine is chemically modified through conjugation of the epsilon-amino group of the Lysine side chain with (Glu)-(ga)
B13: Example 1067 (peptide)
chain: B1 chain with Q12X
modifications: non-natural residues; lysine acylated with C18 diacid; C-terminal amide; synthetic construct; SITE 2: note = 2-Aminoisobutyric Acid; SITE 10: note = 3-(4-Pyridyl)-L-alanine; SITE 12: note = L-ornithine; SITE 13: note = alpha-methyl-leucine; SITE 16: note = L-ornithine; SITE 17: note = Lysine is chemically modified through conjugation of the epsilon-amino group of the Lys
B14: Example 1059 (peptide)
chain: B1 chain with Q12X, X25Y, L27I, E28A
modifications: acylated Lys, C-terminal amide, non-natural residues; synthetic construct; SITE 2: note = 2-Aminoisobutyric Acid; SITE 10: note = 3-(4-Pyridyl)-L-alanine; SITE 12: note = L-ornithine; SITE 13: note = alpha-methyl-leucine; SITE 16: note = L-ornithine; SITE 17: note = Lysine is chemically modified through conjugation of the epsilon-amino group of the Lys
B15: Example 1042 (peptide)
chain: B1 chain with L27I
modifications: not fully specified; non-natural residues; lipidated Lys; C-terminal amide; synthetic construct; SITE 2: note = 2-Aminoisobutyric Acid; SITE 10: note = 3-(4-Pyridyl)-L-alanine; SITE 13: note = alpha-methyl-leucine; SITE 16: note = L-ornithine; SITE 17: note = Lysine is chemically modified through conjugation of the epsilon-amino group of the Lysine side chain with (2-[2-(2-
B16: Example 1063 (peptide)
chain: B1 chain with Q12X, X25Y, L27I, E28A
modifications: Lys acylated γGlu-C18 diacid; non-natural residues; C-amide; synthetic construct; SITE 2: note = 2-Aminoisobutyric Acid; SITE 10: note = 3-(4-Pyridyl)-L-alanine; SITE 12: note = L-ornithine; SITE 13: note = alpha-methyl-leucine; SITE 16: note = L-ornithine; SITE 17: note = Lysine is chemically modified through conjugation of the epsilon-amino group of the Lys

biological target: hGLP-1R (Homo sapiens, UniProt P43220); assay: cell-based or functional assay
Sequence (P43220 24-463): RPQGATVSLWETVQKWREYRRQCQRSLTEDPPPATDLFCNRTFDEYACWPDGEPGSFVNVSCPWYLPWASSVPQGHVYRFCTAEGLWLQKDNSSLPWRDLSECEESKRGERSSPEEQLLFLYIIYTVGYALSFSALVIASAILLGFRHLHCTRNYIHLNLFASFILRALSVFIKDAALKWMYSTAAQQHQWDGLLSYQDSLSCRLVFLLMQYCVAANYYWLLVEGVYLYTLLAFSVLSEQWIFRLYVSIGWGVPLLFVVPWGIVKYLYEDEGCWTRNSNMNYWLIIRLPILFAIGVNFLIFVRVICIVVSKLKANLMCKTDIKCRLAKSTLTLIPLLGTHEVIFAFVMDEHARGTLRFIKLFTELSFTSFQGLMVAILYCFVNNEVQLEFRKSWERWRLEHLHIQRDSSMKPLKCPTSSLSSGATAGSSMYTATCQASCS

Binder | Relative cAMP EC50 | cAMP Rel EC50, nM (1% HSA) | cAMP Rel EC50 (1% HSA)
B1 | 4.48 nM |  | 
B2 | 4.56 nM |  | 
B3 | 7.75 nM |  | 
B4 | 4.25 nM |  | 
B5 | 5.16 nM |  | 
B6 |  | 1110 nM | 
B7 | 6.2 nM |  | 
B8 |  | 268 nM | 
B9 | 7.65 nM |  | 1240 nM
B10 |  | 528 nM | 
B11 | 9.8 nM |  | 1850 nM
B12 | 2.85 nM |  | 
B13 | 17.6 nM |  | 2610 nM
B14 | 4.61 nM |  | 
B15 |  | 642 nM | 
B16 | 6.96 nM |  | 626 nM

biological target: T1, human GIP receptor (human) (UniProt P48546); assay: cell-based or functional assay
T1 sequence (looked up): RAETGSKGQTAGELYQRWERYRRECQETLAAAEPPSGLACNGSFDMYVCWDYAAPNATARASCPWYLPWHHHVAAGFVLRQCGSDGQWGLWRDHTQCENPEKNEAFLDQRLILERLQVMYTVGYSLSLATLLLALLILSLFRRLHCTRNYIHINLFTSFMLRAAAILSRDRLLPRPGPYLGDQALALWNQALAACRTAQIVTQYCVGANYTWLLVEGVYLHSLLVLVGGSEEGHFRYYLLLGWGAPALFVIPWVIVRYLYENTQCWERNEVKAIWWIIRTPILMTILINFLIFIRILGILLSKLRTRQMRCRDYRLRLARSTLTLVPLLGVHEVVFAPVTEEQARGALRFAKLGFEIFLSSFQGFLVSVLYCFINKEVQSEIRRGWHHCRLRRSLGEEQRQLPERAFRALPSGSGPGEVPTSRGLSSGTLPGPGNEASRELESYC

Binder | Relative cAMP EC50 | cAMP Rel EC50 (1% HSA) | cAMP Rel EC50, nM (1% HSA)
B1 | 0.139 nM | 45.6 nM | 
B2 | 0.656 nM | 55.6 nM | 
B3 | 0.726 nM | 67.5 nM | 
B4 | 0.0929 nM | 29.6 nM | 
B5 | 0.128 nM | 25.9 nM | 
B6 |  |  | 88.7 nM
B7 | 0.123 nM | 19.3 nM | 
B8 |  |  | 44.9 nM
B9 | 0.152 nM | 68.5 nM | 
B10 |  |  | 85 nM
B11 | 0.446 nM | 69.9 nM | 
B12 | 0.223 nM | 44.7 nM | 
B13 | 0.471 nM | 86.4 nM | 
B14 | 0.468 nM | 48.9 nM | 
B15 |  |  | 84.8 nM
B16 | 0.318 nM | 26.6 nM | 

biological target: human glucagon receptor (human) (UniProt P47871); assay: cell-based or functional assay
Sequence (P47871 26-477): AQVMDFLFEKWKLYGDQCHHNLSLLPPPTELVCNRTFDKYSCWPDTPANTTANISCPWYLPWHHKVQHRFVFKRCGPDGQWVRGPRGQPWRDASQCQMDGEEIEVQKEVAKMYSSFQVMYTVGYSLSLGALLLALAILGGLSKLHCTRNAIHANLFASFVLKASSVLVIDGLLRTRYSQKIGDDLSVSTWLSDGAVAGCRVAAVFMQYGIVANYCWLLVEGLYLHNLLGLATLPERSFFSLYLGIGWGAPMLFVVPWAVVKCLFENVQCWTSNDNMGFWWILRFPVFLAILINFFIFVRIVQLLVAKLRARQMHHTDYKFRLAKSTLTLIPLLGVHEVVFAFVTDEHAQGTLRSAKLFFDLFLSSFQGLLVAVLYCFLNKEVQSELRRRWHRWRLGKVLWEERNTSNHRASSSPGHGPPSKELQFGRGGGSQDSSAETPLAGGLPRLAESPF

Binder | Relative cAMP EC50 | cAMP Rel EC50 (1% HSA) | cAMP Rel EC50, nM (1% HSA)
B1 | 5.8 nM | 1450 nM | 
B2 | 17.3 nM | 2910 nM | 
B3 | 8.77 nM | 2380 nM | 
B4 | 3.98 nM | 1650 nM | 
B5 | 5.29 nM | 2780 nM | 
B6 |  |  | 2410 nM
B7 | 10.4 nM | 3470 nM | 
B8 |  |  | 2240 nM
B9 | 6.8 nM | 2040 nM | 
B10 |  |  | 1680 nM
B11 | 25.4 nM | 4260 nM | 
B12 | 9.08 nM | 4900 nM | 
B13 | 12.6 nM | 1860 nM | 
B14 | 7.52 nM | 748 nM | 
B15 |  |  | 1890 nM
B16 | 10.6 nM | 2290 nM | 
